Data on four sequences can be found in article PMC10180154.

The target in series [1] is T1, LRP6 (recombinant human LRP-6, Fc chimera) (Homo sapiens) (UniProt O75581).
T1 sequence: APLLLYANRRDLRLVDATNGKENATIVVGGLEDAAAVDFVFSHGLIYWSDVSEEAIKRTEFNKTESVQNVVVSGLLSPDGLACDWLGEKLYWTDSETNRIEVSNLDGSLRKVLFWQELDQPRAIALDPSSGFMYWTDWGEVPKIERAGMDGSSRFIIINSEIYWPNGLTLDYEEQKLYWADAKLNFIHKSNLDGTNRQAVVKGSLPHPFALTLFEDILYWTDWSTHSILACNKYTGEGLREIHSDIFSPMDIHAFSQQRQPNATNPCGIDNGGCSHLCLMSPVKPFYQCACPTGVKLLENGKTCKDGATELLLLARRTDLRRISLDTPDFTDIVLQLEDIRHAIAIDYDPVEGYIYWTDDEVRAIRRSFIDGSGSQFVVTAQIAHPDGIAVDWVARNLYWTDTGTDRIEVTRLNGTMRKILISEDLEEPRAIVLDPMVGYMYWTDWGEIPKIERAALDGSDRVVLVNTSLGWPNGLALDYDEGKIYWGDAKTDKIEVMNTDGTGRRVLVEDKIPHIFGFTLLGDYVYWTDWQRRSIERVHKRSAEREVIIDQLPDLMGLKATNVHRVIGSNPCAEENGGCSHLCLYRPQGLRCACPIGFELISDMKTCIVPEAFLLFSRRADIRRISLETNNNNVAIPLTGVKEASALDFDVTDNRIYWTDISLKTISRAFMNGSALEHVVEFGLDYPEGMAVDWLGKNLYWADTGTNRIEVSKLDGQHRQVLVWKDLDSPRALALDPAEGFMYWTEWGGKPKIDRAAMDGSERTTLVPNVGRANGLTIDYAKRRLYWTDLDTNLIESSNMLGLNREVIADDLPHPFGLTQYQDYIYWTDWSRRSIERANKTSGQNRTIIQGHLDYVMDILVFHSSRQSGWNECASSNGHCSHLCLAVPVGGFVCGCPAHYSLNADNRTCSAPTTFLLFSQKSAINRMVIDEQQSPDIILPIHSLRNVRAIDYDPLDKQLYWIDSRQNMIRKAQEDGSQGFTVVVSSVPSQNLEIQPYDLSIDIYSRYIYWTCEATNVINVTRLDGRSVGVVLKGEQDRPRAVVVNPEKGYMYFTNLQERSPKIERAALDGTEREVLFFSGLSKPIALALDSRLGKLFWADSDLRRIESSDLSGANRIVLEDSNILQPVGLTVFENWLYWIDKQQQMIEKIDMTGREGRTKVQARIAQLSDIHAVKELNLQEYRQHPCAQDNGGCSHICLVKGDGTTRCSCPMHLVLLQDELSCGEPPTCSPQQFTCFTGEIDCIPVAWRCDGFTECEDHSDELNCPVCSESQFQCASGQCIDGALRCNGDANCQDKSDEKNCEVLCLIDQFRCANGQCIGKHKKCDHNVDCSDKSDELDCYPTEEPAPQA
The series is described as follows: SPR. Particulars: CE-LIF: incubation pH 8.0, 0.155% glutathione, 0.395% Tris-HCl; running buffer 50 mM borate pH 7.6, 20 kV, 25 C (CE-SELEX conditions). SPR: PBST pH 7.4, 0.05% ….

Series [2] deals with T1, LRP6 (recombinant human LRP-6, Fc chimera) (Homo sapiens). The series is described as follows: CE-LIF (NECEEM). Particulars: CE-LIF: incubation pH 8.0, 0.155% glutathione, 0.395% Tris-HCl; running buffer 50 mM borate pH 7.6, 20 kV, 25 C (CE-SELEX conditions). SPR: PBST pH 7.4, 0.05% ….

For orientation: Kd means the constant that tells how readily two partners part at equilibrium. Consider “AGCAGCACAGAGGTCAGATGGCCACATTAGTCTCACCACTACCTGCGTACCTACCGCCGCCCTATGCGTGCTACCGTGAA [AptLRP6-A2]”, for which the Kd in series [1] was 173 nM; in series [2], 1280 nM.
On the same counts, the results for “AGCAGCACAGAGGTCAGATGGCAGCTAAGCAGGCGGCTCACAAAACCATTCGCATGCGGCCCTATGCGTGCTACCGTGAA [AptLRP6-A3]” are 25.7 nM and 105 nM.
For “AGCAGCACAGAGGTCAGATGCGACTTGCCTATCGGCATGACACAATCTTTTGGAGCGTAACCTATGCGTGCTACCGTGAA [AptLRP6-A4]” the same measures were 51 nM and 661 nM.
For “AGCAGCACAGAGGTCAGATGCCGCAGGCAGCTGCCATTAGTCTCTATCCGTGACGGTATGCCTATGCGTGCTACCGTGAA [AptLRP6-A1]” the same measures were 13.4 nM and 118 nM.
